Where no end group is shown, it is not given here.
B1: Peptide-56 (peptide)
peptide: VDFCYQYGWPICSRV
notes: mask peptide for the TROP2 Fab
B2: Peptide-61 (peptide)
peptide: VDFCALYHWPVCGL
notes: as for B1
B3: Peptide-60 (peptide)
peptide: VDFCNLYHWPICAI
notes: as for B1
B4: Peptide-55 (peptide)
peptide: VDFCYKYNWPICSR
notes: as for B1
B5: Peptide-53 (peptide)
peptide: IDFCRVYDWPVCSL
notes: as for B1
B6: Peptide-59 (peptide)
peptide: VDFCALYNWPVCAI
notes: as for B1
B7: Peptide-12 (peptide)
peptide: PDFCAVYRWPICYQ
modifications: cysteine pairing not given here; also: biotinylated (site not given here)
B8: Peptide-1 (peptide)
peptide: IDFCAMYQWPICDT
modifications: cysteine pairing not given here; also: biotinylated (site not given here)
B9: Peptide-17 (peptide)
peptide: IDFCLLYDWPICGR
modifications: cysteine pairing not given here; also: biotinylated (site not given here)
B10: Peptide-10 (peptide)
peptide: IDFCAIYQWPVCRS
modifications: cysteine pairing not given here; also: biotinylated (site not given here)
B11: Peptide-2 (peptide)
peptide: IDFCAVYKWPVCQV
modifications: cysteine pairing not given here; also: biotinylated (site not given here)
B12: Peptide-13 (peptide)
peptide: VDFCELYRWPICNS
modifications: cysteine pairing not given here; also: biotinylated (site not given here)
B13: Peptide-29 (peptide)
peptide: SYLVCVKNVYCWTA
modifications: cysteine pairing not given here; also: biotinylated, site not given here
B14: Peptide-18 (peptide)
peptide: MDFCQIYDWPICRL
modifications: cysteine pairing not given here; also: biotinylated (site not given here)
B15: Peptide-4 (peptide)
peptide: VDFCKIYAWPICGS
modifications: cysteine pairing not given here; also: biotinylated, site not given here
B16: Peptide-5 (peptide)
peptide: VDFCKLYNWPVCQT
modifications: cysteine pairing not given here; also: biotinylated, site not given here
B17: Peptide-14 (peptide)
peptide: LDFCKIYDWPICHL
modifications: cysteine pairing not given here; also: biotinylated (site not given here)
B18: Peptide-6 (peptide)
peptide: IDFCLIYNWPVCDT
modifications: cysteine pairing not given here; also: biotinylated, site not given here

These binders were tested against T1, TBD-1 wt (anti-TROP2 Fab, hRS7) (assay: competition ELISA, Fab on captured TROP2).
T1 construct: non-mutated Fab

Row | Binder | IC50
1 | B1 | 10100 nM
2 | B2 | 1830 nM
3 | B3 | 470 nM
4 | B4 | 4390 nM
5 | B5 | 8930 nM
6 | B6 | 3490 nM

Each binder was assayed against T2, TBD-17 (HC S104A) (assay: competition ELISA, Fab on captured TROP2).
T2 construct: anti-TROP2 Fab, CDR3 HC alanine mutant

Row | Binder | IC50
7 | B1 | 24100 nM
8 | B2 | 1830 nM
9 | B3 | 2090 nM
10 | B4 | 7210 nM
11 | B5 | 7560 nM
12 | B6 | 3490 nM

The binders below were run against T3, TBD-22 (HC D109A) (assay: competition ELISA, Fab on captured TROP2).
T3 construct: anti-TROP2 Fab, CDR3 HC alanine mutant

Row | Binder | IC50
13 | B1 | 3030 nM
14 | B2 | 260 nM
15 | B3 | 160 nM
16 | B4 | 330 nM
17 | B5 | 590 nM
18 | B6 | 100 nM

These binders were tested against T4, TBD-6 (LC I93A) (assay: competition ELISA, Fab on captured TROP2).
T4 construct: anti-TROP2 Fab, CDR3 LC alanine mutant

Row | Binder | IC50
19 | B1 | 5620 nM
20 | B2 | 1190 nM
21 | B3 | 670 nM
22 | B4 | 3120 nM
23 | B5 | 4510 nM
24 | B6 | 1940 nM

What follows are binders tested against T5, TBD-21 (HC F108A) (assay: competition ELISA, Fab on captured TROP2).
T5 construct: anti-TROP2 Fab, CDR3 HC alanine mutant

Row | Binder | IC50
25 | B1 | 106000 nM
26 | B2 | 7750 nM
27 | B3 | 5450 nM
28 | B4 | 16800 nM
29 | B5 | 22700 nM
30 | B6 | 9640 nM

What follows are binders tested against T6, TBD-11 (HC R98A) (assay: competition ELISA, Fab on captured TROP2).
T6 construct: anti-TROP2 Fab, CDR3 HC alanine mutant

Row | Binder | IC50
31 | B1 | 21000 nM
32 | B2 | 12200 nM
33 | B3 | 2560 nM
34 | B4 | 14000 nM
35 | B5 | 16100 nM
36 | B6 | 7550 nM

The binders below were run against T7, TBD-11 (HC R98A) (assay: competition ELISA, peptide vs Fab binding to captured biotin-TROP2).
T7 construct: Fab; also called HC R98A mutant

Row | Binder | IC50
37 | B7 | 850 nM
38 | B8 | 2490 nM
39 | B9 | 1950 nM
40 | B10 | 4040 nM
41 | B11 | 5850 nM
42 | B12 | 2680 nM
43 | B13 | 9170 nM
44 | B14 | 3960 nM
45 | B15 | 3240 nM
46 | B16 | 7230 nM
47 | B17 | 3420 nM
48 | B18 | 8840 nM

The binders below were run against T8, TBD-17 (HC S104A) in the same assay as above.
T8 construct: Fab; also called HC S104A mutant

Row | Binder | IC50
49 | B7 | 2230 nM
50 | B8 | 1020 nM
51 | B9 | 2070 nM
52 | B10 | 1520 nM
53 | B11 | 2080 nM
54 | B12 | 2990 nM
55 | B13 | 1110 nM
56 | B14 | 7080 nM
57 | B15 | 2040 nM
58 | B16 | 1790 nM
59 | B17 | 5720 nM
60 | B18 | 3090 nM

These binders were tested against T9, TBD-1 wt in the same assay as above.
T9 construct: Fab; the heavy chain entry is VH-CH1; also called wild-type anti-TROP2 Fab (hRS7); TROP2 Fab

Row | Binder | IC50
61 | B7 | 460 nM
62 | B8 | 780 nM
63 | B9 | 430 nM
64 | B10 | 1220 nM
65 | B11 | 2230 nM
66 | B12 | 1010 nM
67 | B13 | 920 nM
68 | B14 | 1270 nM
69 | B15 | 460 nM
70 | B16 | 1590 nM
71 | B17 | 2190 nM

What follows are binders tested against T10, TBD-6 (LC I93A) in the same assay as above.
T10 construct: Fab; also called LC I93A mutant

Row | Binder | IC50
72 | B7 | 1460 nM
73 | B8 | 350 nM
74 | B9 | 760 nM
75 | B10 | 620 nM
76 | B11 | 1100 nM
77 | B12 | 970 nM
78 | B13 | 800 nM
79 | B14 | 6110 nM
80 | B15 | 400 nM
81 | B16 | 1050 nM
82 | B17 | 1540 nM
83 | B18 | 1860 nM

Each binder was assayed against T11, TBD-22 (HC D109A) in the same assay as above.
T11 construct: Fab; also called HC D109A mutant

Row | Binder | IC50
84 | B7 | 70 nM
85 | B8 | 70 nM
86 | B9 | 70 nM
87 | B10 | 60 nM
88 | B11 | 160 nM
89 | B12 | 200 nM
90 | B13 | 33600 nM
91 | B14 | 350 nM
92 | B15 | 130 nM
93 | B16 | 100 nM
94 | B17 | 190 nM
95 | B18 | 90 nM

The binders below were run against T12, TBD-21 (HC F108A) in the same assay as above.
T12 construct: Fab; also called HC F108A mutant

Row | Binder | IC50
96 | B7 | 2240 nM
97 | B8 | 2890 nM
98 | B9 | 2940 nM
99 | B10 | 2900 nM
100 | B11 | 5880 nM
101 | B12 | 3200 nM
102 | B13 | 1490 nM
103 | B14 | 7560 nM
104 | B15 | 3300 nM
105 | B16 | 7160 nM
106 | B17 | 6920 nM
107 | B18 | 7940 nM

Source: patent US20230357429A1 (JANUX THERAPEUTICS, published 2023)
